Reference: patent US20110165161A1, “ANTI-EPCAM ANTIBODIES THAT INDUCE APOPTOSIS OF CANCER CELLS AND METHODS USING SAME” (priority 2009, published 2011)

Tests used:
[1] = biological target: T1, human EpCAM (epithelial cell adhesion/activating molecule) (human, UniProt P16422 24-314); test: cell-based or functional assay
T1 sequence: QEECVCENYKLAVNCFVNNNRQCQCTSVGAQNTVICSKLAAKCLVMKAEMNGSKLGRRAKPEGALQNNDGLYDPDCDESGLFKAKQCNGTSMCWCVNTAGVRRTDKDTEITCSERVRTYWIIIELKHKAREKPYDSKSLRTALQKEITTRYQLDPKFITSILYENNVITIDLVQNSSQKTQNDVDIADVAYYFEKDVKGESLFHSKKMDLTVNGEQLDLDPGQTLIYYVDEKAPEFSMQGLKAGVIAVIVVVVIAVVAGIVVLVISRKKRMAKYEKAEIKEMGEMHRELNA

EGFI-Cr1 R44G = biological target: T2, EGFI-Cr1 R44G (human, UniProt P16422 24-63); test: direct ELISA, coated EGFI-Cr1 fusion, 0.1 µg/ml antibody
T2 construct: not shown: the constant region of human immunoglobulin gamma 1 heavy chain (Cr1) fused at the C-terminus
T2 chain: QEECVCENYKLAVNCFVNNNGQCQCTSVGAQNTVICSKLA
Procedure: (§1) A direct ELISA was used for testing the reactivity of anti-EpCAM antibodies toward variant EpCAM mutants. Briefly, purified EpCAM EGF-1 fusion proteins (WT, Q24A, E25K, E26D, A35T, N37R, F39A, V40E, N41A, N42E, N43A, R44G, Q45A, Q47A or T49A) and irrelevant control (CEA-Cr1) were pre-diluted to 0.5 μg/ml in coating buffer (8.4 g NaHCO₃, 3.4 g Na₂CO₃ in 1 L H₂O, pH 9.5) and aliquoted (100 μl/well) into 96-well plates. […] Plates were then washed 3 times with PBST followed by the addition of the enzyme substrate TMB (BD Biosciences, Cat. No. 555214). […] The optical densities at 450 nm wavelength were measured on an ELISA plate reader.

EGFI-Cr1 V40E = biological target: T3, EGFI-Cr1 V40E (human); test: as above
T3 construct: not shown: The fused constant region of human immunoglobulin gamma 1 heavy chain (Cr1)
T3 chain: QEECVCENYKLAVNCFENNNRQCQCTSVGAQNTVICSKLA
Procedure: as §1

EGFI-Cr1 E26D = biological target: T4, EGFI-Cr1 E26D (human, UniProt P16422 24-63); test: as above
T4 construct: not shown: The fused constant region of human immunoglobulin gamma 1 heavy chain (Cr1)
T4 chain: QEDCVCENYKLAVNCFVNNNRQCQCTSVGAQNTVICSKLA
Procedure: as §1

EGFI-Cr1 A35T = biological target: T5, EGFI-Cr1 A35T (human, UniProt P16422 24-63); test: as above
T5 construct: not shown: The fused constant region of human immunoglobulin gamma 1 heavy chain (Cr1)
T5 chain: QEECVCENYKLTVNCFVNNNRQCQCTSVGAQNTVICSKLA
Procedure: as §1

EGFI-Cr1 Q24A = biological target: T6, EGFI-Cr1 Q24A (human, UniProt P16422 25-63); test: as above
T6 construct: not shown: The fused constant region of human immunoglobulin gamma 1 heavy chain (Cr1)
T6 chain: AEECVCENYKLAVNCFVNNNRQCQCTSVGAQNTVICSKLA
Procedure: as §1

EGFI-Cr1 N37R = biological target: T7, EGFI-Cr1 N37R (human); test: as above
T7 construct: not shown: The fused constant region of human immunoglobulin gamma 1 heavy chain (Cr1)
T7 chain: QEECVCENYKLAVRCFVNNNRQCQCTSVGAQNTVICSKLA
Procedure: as §1

EGFI-Cr1 N42E = biological target: T8, EGFI-Cr1 N42E (human, UniProt P16422 24-63); test: as above
T8 construct: not shown: the constant region of human immunoglobulin gamma 1 heavy chain (Cr1) fused at the C-terminus
T8 chain: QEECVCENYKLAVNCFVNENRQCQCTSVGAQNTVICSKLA
Procedure: as §1

EGFI-Cr1 N43A = biological target: T9, EGFI-Cr1 N43A (human, UniProt P16422 24-63); test: as above
T9 construct: not shown: the constant region of human immunoglobulin gamma 1 heavy chain (Cr1) fused at the C-terminus
T9 chain: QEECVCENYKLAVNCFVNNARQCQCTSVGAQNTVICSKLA
Procedure: as §1

EGFI-Cr1 Q47A = biological target: T10, EGFI-Cr1 Q47A (human, UniProt P16422 24-63); test: as above
T10 construct: not shown: the constant region of human immunoglobulin gamma 1 heavy chain (Cr1) fused at the C-terminus
T10 chain: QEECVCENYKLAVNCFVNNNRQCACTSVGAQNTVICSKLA
Procedure: as §1

EGFI-Cr1 Q45A = biological target: T11, EGFI-Cr1 Q45A (human, UniProt P16422 24-63); test: as above
T11 construct: not shown: the constant region of human immunoglobulin gamma 1 heavy chain (Cr1) fused at the C-terminus
T11 chain: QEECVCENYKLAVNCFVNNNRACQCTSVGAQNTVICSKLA
Procedure: as §1

EGFI-Cr1 N41A = biological target: T12, EGFI-Cr1 N41A (human, UniProt P16422 24-63); test: as above
T12 construct: not shown: The fused constant region of human immunoglobulin gamma 1 heavy chain (Cr1)
T12 chain: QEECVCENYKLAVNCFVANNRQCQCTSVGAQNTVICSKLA
Procedure: as §1

[2] = biological target: T13, EGFI-Cr1 wild type (first EGF-like repeat of human EpCAM fused to the constant region of human immunoglobulin … (human, UniProt P01857-1 99-330 = IgG part)); test: as above
T13 construct: cDNA covered aa 1-63; Expressed in COS-7 cells; also called WT; EpCAM EGF-1 fusion protein WT
Procedure: as §1

EGFI-Cr1 T49A = biological target: T14, EGFI-Cr1 T49A (human, UniProt P16422 24-63); test: as above
T14 construct: not shown: the constant region of human immunoglobulin gamma 1 heavy chain (Cr1) fused at the C-terminus
T14 chain: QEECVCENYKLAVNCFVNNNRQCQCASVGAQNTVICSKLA
Procedure: as §1

EGFI-Cr1 F39A = biological target: T15, EGFI-Cr1 F39A (human, UniProt P16422 24-63); test: as above
T15 construct: not shown: The fused constant region of human immunoglobulin gamma 1 heavy chain (Cr1)
T15 chain: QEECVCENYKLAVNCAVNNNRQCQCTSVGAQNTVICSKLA
Procedure: as §1

EGFI-Cr1 E25K = biological target: T16, EGFI-Cr1 E25K (human, UniProt P16422 24-63); test: as above
T16 construct: not shown: The fused constant region of human immunoglobulin gamma 1 heavy chain (Cr1)
T16 chain: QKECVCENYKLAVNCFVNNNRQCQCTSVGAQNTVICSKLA
Procedure: as §1

[3] = biological target: T1, human EpCAM (epithelial cell …); test: cell-based or functional assay; remark: listed apart in the source
[4] = biological target: T1, human EpCAM (epithelial cell …); test: flow cytometry, CHO/EpCAM cells, 0.1 µg/ml antibody
Procedure: A 300× dilution of human cell hyper-immune serum (HPS 300×) was used as binding positive control for both cell lines here. After 1 hr incubation at 4° C., cells were washed twice with 200 μl FACS buffer (1×PBS containing 1% FBS), stained with 100 μl of 1 μg/ml goat-anti-mouse IgG-PE (Southern Biotech, Cat. No. 1032-09) in FACS buffer and then incubated at 4° C. for 30 min. Cells were washed thrice with FACS buffer and analyzed by flow cytometry (BD LSR, BD Life Sciences).

% of Annexin V + PI staining (untreated background subtracted), NCI-H358, 10 µg/ml mAb, Exp1 [1]: 41%
% of Annexin V + PI staining (untreated background subtracted), NCI-H358, 10 µg/ml mAb, Exp2 [1]: 32%
% of Annexin V + PI staining (untreated background subtracted), NCI-H358, 10 µg/ml mAb, Exp3 [1]: 47%
% of Annexin V + PI staining (untreated background subtracted), NCI-H358, 10 µg/ml mAb, Exp4 [1]: 44%
% of Annexin V + PI staining (untreated background subtracted), NCI-H358, 10 µg/ml mAb, Exp5 [1]: 33%
relative binding activity (% of WT) (EGFI-Cr1 R44G): 7%
relative binding activity (% of WT) (EGFI-Cr1 V40E): 93%
relative binding activity (% of WT) (EGFI-Cr1 E26D): 97%
relative binding activity (% of WT) (EGFI-Cr1 A35T): 95%
relative binding activity (% of WT) (EGFI-Cr1 Q24A): 99%
relative binding activity (% of WT) (EGFI-Cr1 N37R): 94%
relative binding activity (% of WT) (EGFI-Cr1 N42E): 58%
relative binding activity (% of WT) (EGFI-Cr1 N43A): 5%
relative binding activity (% of WT) (EGFI-Cr1 Q47A): 96%
relative binding activity (% of WT) (EGFI-Cr1 Q45A): 89%
relative binding activity (% of WT) (EGFI-Cr1 N41A): 12%
relative binding activity (% of WT) [2]: 100%
relative binding activity (% of WT) (EGFI-Cr1 T49A): 95%
relative binding activity (% of WT) (EGFI-Cr1 F39A): 97%
relative binding activity (% of WT) (EGFI-Cr1 E25K): 93%
% Annexin V/PI-positive cells, DLD-1, 1.0 µg/ml mAb [3]: 18%
% Annexin V/PI-positive cells, DLD-1, 3.0 µg/ml mAb [3]: 41%
% Annexin V/PI-positive cells, DLD-1, 10 µg/ml mAb [3]: 48%
% Annexin V/PI-positive cells, FaDu, 1.0 µg/ml mAb [3]: 34%
% Annexin V/PI-positive cells, FaDu, 3.0 µg/ml mAb [3]: 45%
% Annexin V/PI-positive cells, FaDu, 10 µg/ml mAb [3]: 46%
% Annexin V/PI-positive cells, LNCaP, 1.0 µg/ml mAb [3]: 40%
% Annexin V/PI-positive cells, LNCaP, 3.0 µg/ml mAb [3]: 39%
% Annexin V/PI-positive cells, LNCaP, 10 µg/ml mAb [3]: 40%
% Annexin V/PI-positive cells, NCI-H520, 1.0 µg/ml mAb [3]: 41%
% Annexin V/PI-positive cells, NCI-H520, 3.0 µg/ml mAb [3]: 44%
% Annexin V/PI-positive cells, NCI-H520, 10 µg/ml mAb [3]: 52%
% Annexin V/PI-positive cells, NCI-N87, 1.0 µg/ml mAb [3]: 45%
% Annexin V/PI-positive cells, NCI-N87, 3.0 µg/ml mAb [3]: 48%
% Annexin V/PI-positive cells, NCI-N87, 10 µg/ml mAb [3]: 51%
% Annexin V/PI-positive cells, NIH:OVCAR-3, 1.0 µg/ml mAb [3]: 43%
% Annexin V/PI-positive cells, NIH:OVCAR-3, 3.0 µg/ml mAb [3]: 55%
% Annexin V/PI-positive cells, NIH:OVCAR-3, 10 µg/ml mAb [3]: 56%
% Annexin V/PI-positive cells, T-47D, 1.0 µg/ml mAb [3]: 36%
% Annexin V/PI-positive cells, T-47D, 3.0 µg/ml mAb [3]: 48%
% Annexin V/PI-positive cells, T-47D, 10 µg/ml mAb [3]: 45%
MFI [4]: 3720 MFI
B1: murine monoclonal antibody 2D11 (antibody, mouse IgG1, V domains shown)
VH: QIQLVQSGPELKKPGETVKISCKASGYTFTNYGMNWVKQAPGKGLKWMGWINTNTGEATYVEEFKGRVVFSLETSASTAYLQINNLKNEDTATYFCARIGYVWYFDVWGAGTTVTVSS
VL: DIVMSQSPSSLAVSAGEKVTMSCKSSQSLFSSRTRKNYLAWYQQKPGQSPKLLIYWASTRESGVPDRFTGSGSGTDFTLTINSVQAEDLAVYYCKHSNNLFTFGSGTKLEIKR
notes: Mouse IgG1, kappa, from hybridoma; also called m322-2D11.19
